Reference: article PMC3488082 (The Journal of Biological Chemistry, 2012)
Positions count from the first letter of the chain named. In names and notes the source's numbering stands.

Biological target: the molecule itself
Assay: crystal structure

B1: Human aldehyde dehydrogenase-2 (ALDH2), wild-type (enzyme)
chain: SAAATQAVPAPNQQPEVFCNQIFINNEWHDAVSRKTFPTVNPSTGEVICQVAEGDKEDVDKAVKAARAAFQLGSPWRRMDASHRGRLLNRLADLIERDRTYLAALETLDNGKPYVISYLVDLDMVLKCLRYYAGWADKYHGKTIPIDGDFFSYTRHEPVGVCGQIIPWNFPLLMQAWKLGPALATGNVVVMKVAEQTPLTALYVANLIKEAGFPPGVVNIVPGFGPTAGAAIASHEDVDKVAFTGSTEIGRVIQVAAGSSNLKRVTLELGGKSPNIIMSDADMDWAVEQAHFALFFNQGQCCCAGSRTFVQEDIYDEFVERSVARAKSRVVGNPFDSKTEQGPQVDETQFKKILGYINTGKQEGAKLLCGGGIAADRGYFIQPTVFGDVQDGMTIAKEEIFGPVMQILKFKTIEEVVGRANNSTYGLAAAVFTKDLDKANYLSQALQAGTVWVNCYDVFGAQSPFGGYKMSGSGRELGEYGLQAYTEVKTVTVKVPQKNS
modifications: thionitrate adduct on Cys-302 (GTN-soaked crystal)
  stoichiometry N: 4

B2: Human aldehyde dehydrogenase-2 (ALDH2) triple mutant E268Q/C301S/C303S (enzyme)
chain: B1 chain with E268Q, C301S, C303S
  stoichiometry N: 4
